Here are results for 26 substances from the array DNA melting data of Ke et al..

The series is described as follows: melting temperature; melt of duplexes. To be noted: sodium 0.0675 M; strand 1 µM.
With “CGACGTGCGTCATGTGCTG+CAGCACATATTGCACGTCG ((((((((...((((((((+))))))))...))))))))”, the Tm stood at 49.2 °C. Consider “CGACGTGCCCCATGTGCTG+CAGCACATCCTGCACGTCG ((((((((...((((((((+))))))))...))))))))”, for which the melting temperature (Tm) amounted to 46.8 °C. For the substance “CGACGTGCCGAATGTGCTG+CAGCACATACCGCACGTCG ((((((((.(.((((((((+)))))))).).))))))))”, the melting temperature (Tm) worked out at 49.5 °C.

For “CGACGTGCTCTATGTGCTG+CAGCACATATAGCACGTCG (((((((((.(((((((((+))))))))).)))))))))”, the melting temperature (Tm) is 54.3 °C. With “CGACGTGCCGAATGTGCTG+CAGCACATACGGCACGTCG ((((((((((.((((((((+)))))))).))))))))))”, the Tm was 60.1 °C. Take “CGACGTGCACCATGTGCTG+CAGCACATTGGGCACGTCG ((((((((.(.((((((((+)))))))).).))))))))”: the Tm came out at 52.5 °C. For the substance “CGACGTGCAGTATGTGCTG+CAGCACATGGAGCACGTCG ((((((((...((((((((+))))))))...))))))))”, the melting temperature (Tm) was found to be 50.6 °C. As for “CGACGTGCAGGATGTGCTG+CAGCACATAGTGCACGTCG (((((((((..((((((((+))))))))..)))))))))”, the Tm turned out to be 50.6 °C. With “CGACGTGCCAGATGTGCTG+CAGCACATGTCGCACGTCG ((((((((.(.((((((((+)))))))).).))))))))” the figure was 49.7 °C; with “CGACGTGCTTTATGTGCTG+CAGCACATGCTGCACGTCG ((((((((...((((((((+))))))))...))))))))”, 46.2 °C; with “CGACGTGCAGTATGTGCTG+CAGCACATCGCGCACGTCG ((((((((...((((((((+))))))))...))))))))”, 49.9 °C. For “CGACGTGCGTTATGTGCTG+CAGCACATTGTGCACGTCG ((((((((...((((((((+))))))))...))))))))”, the Tm stood at 47.2 °C. “CGACGTGCGGAATGTGCTG+CAGCACATCGGGCACGTCG ((((((((...((((((((+))))))))...))))))))”: the Tm amounted to 50 °C. For the substance “CGACGTGCTTCATGTGCTG+CAGCACATTCAGCACGTCG (((((((((..((((((((+))))))))..)))))))))”, the melting temperature (Tm) was 50.7 °C. Turning to “CGACGTGCAAAATGTGCTG+CAGCACATGTCGCACGTCG ((((((((.(.((((((((+)))))))).).))))))))”, the Tm was 53.3 °C. Consider “CGACGTGCCCCATGTGCTG+CAGCACATTTCGCACGTCG ((((((((...((((((((+))))))))...))))))))”, for which the melting temperature (Tm) was found to be 46 °C. As to “CGACGTGCCCCATGTGCTG+CAGCACATAAGGCACGTCG (((((((((..((((((((+))))))))..)))))))))”, the Tm was 52.7 °C. On to “CGACGTGCGGTATGTGCTG+CAGCACATAAAGCACGTCG ((((((((..(((((((((+)))))))))..))))))))”, for which the Tm was determined as 56.9 °C.

Turning to “CGACGTGCCTGATGTGCTG+CAGCACATTCGGCACGTCG (((((((((..((((((((+))))))))..)))))))))”, the midpoint of thermal melting (Tm) stood at 54.7 °C. As to “CGACGTGCGCCATGTGCTG+CAGCACATCGCGCACGTCG ((((((((((.((((((((+)))))))).))))))))))”, the Tm came out at 58.3 °C.

For “CGACGTGCTTCATGTGCTG+CAGCACATAATGCACGTCG ((((((((.(.((((((((+)))))))).).))))))))”, the midpoint of thermal melting (Tm) was 50.4 °C. For the substance “CGACGTGCACCATGTGCTG+CAGCACATGTAGCACGTCG ((((((((..(((((((((+)))))))))..))))))))”, the Tm was 50.9 °C. For the substance “CGACGTGCTCGATGTGCTG+CAGCACATGGAGCACGTCG ((((((((((.((((((((+)))))))).))))))))))”, the midpoint of thermal melting (Tm) was 59.3 °C. The value for “CGACGTGCTCGATGTGCTG+CAGCACATAGGGCACGTCG ((((((((.(.((((((((+)))))))).).))))))))” was 55.4 °C; that for “CGACGTGCTCGATGTGCTG+CAGCACATAACGCACGTCG ((((((((...((((((((+))))))))...))))))))” was 49 °C. “CGACGTGCGGAATGTGCTG+CAGCACATTTGGCACGTCG ((((((((..(((((((((+)))))))))..))))))))”: the Tm was 54.6 °C.

As usually defined, the Tm is the temperature at which the thermal transition is half complete.
